Results reported in publication PMC4482739, “MamA as a Model Protein for Structure-Based Insight into the Evolutionary Origins of Magnetotactic Bacteria” (PLoS ONE, 2015).
“And” between values parts separate entries of the source, which are not always exact repeats. Identical values can stand only once.

Key:
[1] = target: MamAΔ41 RS-1 TM (triple mutant E140A, K141A, E143A) (Desulfovibrio magneticus RS-1); assay: SEC; Superdex 200, buffer E (10 mM HEPES pH 7.5, 0.5 M NaCl, 5 mM βME); sizes from elution volumes against a standard calibration curve
[2] = target: MamAΔ41 RS-1 TM (triple mutant E140A, K141A, E143A) (Desulfovibrio magneticus RS-1); assay: crystal structure; X-ray, 2.88 Å, space group I4; crystals from 0.1 M Tris pH 8.1, 0.75 M sodium potassium tartrate, 0.5% PEG monomethyl ether 5000; six monomers as two trimeric rings in the asymmetric unit
[3] = target: MamAΔ41 from Desulfovibrio magneticus RS-1 (wild type) (Desulfovibrio magneticus RS-1); assay: SEC; Superdex 200, buffer E (10 mM HEPES pH 7.5, 0.5 M NaCl, 5 mM βME); sizes from elution volumes against a standard calibration curve
[4] = target: the molecule itself; assay: SEC; Superdex 200; sizes from elution volumes against protein markers; buffer for these proteins not stated

With “MamAΔ41 RS-1 TM (triple mutant E140A, K141A, E143A) (domain or fragment)” the stoichiometry N [1] was 13 and 8 and the stoichiometry N [2] was 3.

With “MamAΔ41 from Desulfovibrio magneticus RS-1 (wild type) (domain or fragment)” the stoichiometry N [3] was 8.

B1: MamAΔ41 from Magnetospirillum gryphiswaldense MSR-1 (domain or fragment, UniProt Q93DY9 42-217, looked up)
chain: DDIRQVYYRDKGISHAKAGRYSEAVVMLEQVYDADAFDVEVALHLGIAYVKTGAVDRGTELLERSIADAPDNIKVATVLGLTYVQVQKYDLAVPLLVKVAEANPVNFNVRFRLGVALDNLGRFDEAIDSFKIALGLRPNEGKVHRAIAYSYEQMGSHEEALPHFKKANELDERSAV
notes: MamA of Magnetospirillum gryphiswaldense MSR-1, Δ41 mutant (the putative N-terminal TPR repeat removed); Trimer by SEC; also called MamAΔ41_(MSR-1)
For B1, the “stoichiometry N” value [4] was 3.
